This is an account of results in article PMC8677033.

For the series, the target named is HIS-RBS1_1412 WT (UniProt Q8TEQ6 1297-1412). Kind of series: EMSA. Background: In EMSA bound probe runs differently from free probe, usually more slowly.
Sequence of HIS-RBS1_1412 WT (Q8TEQ6 1297-1412): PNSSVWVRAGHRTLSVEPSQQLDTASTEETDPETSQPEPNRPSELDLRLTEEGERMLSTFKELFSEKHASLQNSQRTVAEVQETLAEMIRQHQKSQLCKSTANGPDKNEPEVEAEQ

As for UUUUU (ssRNA) [U(5)], the binding result is given as “no binding”.
